Data set [1] has as its system MS2 coat protein. Description: apparent KD of MS2 coat protein, switch ON state; designed switch direction (-1 OFF switch, 1 ON switch): -1; higher = weaker reporter binding. As to conditions: FMN input: 0 or 200 uM; Eterna round: R93 (includes R88 designs). A digest of the protocol:
(§1)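 Values are apparent KD, taken as the median for each design of fits to normalised binding curves from individual clusters. The designed RNA switches were transcribed on-chip from Illumina sequencing clusters and exposed to SNAP-549-labelled MS2 coat protein at twofold increasing amounts from 0.7 or 1.5 nM to 3 µM. Titration used 100 mM Tris-HCl pH 7.5, 80 mM KCl and 4 mM MgCl2, without or with constant ligand.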

Data set [2] has as its system MS2 coat protein. Kind of data set: apparent KD of MS2 coat protein, switch OFF state (with FMN for OFF switches, without FMN for ON switches); designed switch direction (-1 OFF switch, 1 ON switch): -1; higher = weaker reporter binding. As to conditions: FMN input: 0 or 200 uM; Eterna round: R93 (includes R88 designs). In a few lines:
as §1

Consider “AAGAAACAUGAGGAUCACCCAUGUGAGGAUAUAGAAAAGAAAAGAAAAGAAAGAAGAACUAGAAGGCACAAAGG [Neferkare (IV) Khendu]”, for which the “apparent KD of MS2 coat protein” value with MS2 coat protein [1] turned out to be 31.1 nM; in the data set on MS2 coat protein [2] it was 28.8 nM.
“AAGAACGCAGGAUAUACAAAAUAAAAGAAAAGAAAGAAAGAACAUGAGGAUCACCCAUGUAGAAGGGCGAAGAA [Sewadjkare]”: the “apparent KD of MS2 coat protein” value in the data set on MS2 coat protein [1] was 52.2 nM; in the data set with MS2 coat protein [2], 49.5 nM.
Turning to “AAGAACGCAGGAUAUAUUAAGGGACAAAGAAGGAAGAAUAAACAUGAGGAUCACCCAUGUAGAAGGGCGAAGAA [JR_Exclusion2_Sub4]”, the figures for the “apparent KD of MS2 coat protein” value in the data set on MS2 coat protein [1] and with MS2 coat protein [2] were 49.4 nM and 43.5 nM, respectively.
On to “AAGAACGGAGGAUAUACAAAAUAAAAGAAAAGAAAGAAAGAACAUGAGGAUCACCCAUGUAGAAGGCUGAAGAA [Merneferre Ay I]”, for which the entries for the “apparent KD of MS2 coat protein” value in the data set with MS2 coat protein [1] and with MS2 coat protein [2] were 35.7 nM and 35.2 nM, respectively.
On to “AAGAACGUAGGAUAUACAUGAGGAUCACCCAUGUAAAAGAAAGAAAGGGAAAAGAAAAGUAGAAGGACGAAGAA [Hedjkheperre-setepenre Shoshenq I]”, for which the “apparent KD of MS2 coat protein” value in the data set on MS2 coat protein [1] amounted to 29.7 nM; with MS2 coat protein [2], 77.9 nM.
For “AAGAACGUAGGAUAUACAUGAGGAUCACCCAUGUAAAAGAAAGAAGGGAAAGAGAAAAGUAGAAGGACGAAGAA [Wahkare Bakenrenef]” the same measures were 21.6 nM and 34.4 nM.
The matching figures for “AAGAACUCAGGAUAUACAUGAGGAUCACCCAUGUAAAAGAAAGAAAGGGAAAAGAAAAGUAGAAGGGAGAAGAA [Hedjkheperre-setpenre Nesbanebdjed]”: 28.7 nM and 34.3 nM.
The matching figures for “AAGAACUGAGGAUAUACAAAAUAAAAGAAAAGAAAGAAAGAACAUGAGGAUCACCCAUGUAGAAGGCAGAAGAA [Sekhemre Khutawy Sobekhotep I]”: 27.6 nM and 19.7 nM.
“AAGAACUGAGGAUAUACUUUGGGAAAAGAAAAGAUGAUGUUACAUGAGGAUCACCCAUGUAGAAGGCAGAAGAA [Mat - Exclusion 2 - Mod - D153]”: the “apparent KD of MS2 coat protein” value in the data set with MS2 coat protein [1] was 27 nM; in the data set on MS2 coat protein [2] it was 37 nM.
For “AAGAAGCAAGGAUAUACAUGAGGAUCACCCAUGUAAAAGAAAGAGGGAAAAGAGAAAAGUAGAAGGUGCAAGAA [Ptolemy VI Philometor]”, the results for the “apparent KD of MS2 coat protein” value in the data set on MS2 coat protein [1] and in the data set on MS2 coat protein [2] were 22.6 nM and 54.4 nM, respectively.
For “AAGAAGCGAGGAUAUACAUGAGGAUCACCCAUGUAAAAGAAAGAGGGAAAAGAGAAAAGUAGAAGGCGCAAGAA [Philip III Arrhidaeus]” the same measures were 84.2 nM and 123 nM.
Regarding “AAGAAGGCAGGAUAUACAAAAUAAAAGAAAAGAAAGAAAGAACAUGAGGAUCACCCAUGUAGAAGGGCUAAGAA [Merhotepre Ini]”, the “apparent KD of MS2 coat protein” value in the data set on MS2 coat protein [1] is 50.9 nM; with MS2 coat protein [2] it was 39.3 nM.
The matching figures for “AAGAAGGUAGGAUAUACAUGAGGAUCACCCAUGUAAAAGAAAGAGGGAAAAGAGAAAAGUAGAAGGACCAAGAA [Ankhmakis]”: 34.3 nM and 50.1 nM.
The matching figures for “AAGAAGUCAGGAUAUACAUGAAAGAAAGAAAAGAAAAGAAAACAUGAGGAUCACCCAUGUAGAAGGGACAAGAA [EteRNA is fun!]”: 54.5 nM and 50.5 nM.
With “AAGAAGUGAGGAUAUACAUGAGGAUCACCCAUGUAAAAGAAAGAGGGAAAAGAGAAAAGUAGAAGGCACAAGAA [Weserkare-meryamun Ptolemy II Philadelphos]”, the figures for the “apparent KD of MS2 coat protein” value in the data set on MS2 coat protein [1] and in the data set on MS2 coat protein [2] were 35.6 nM and 33.7 nM, respectively.
For “AAGAAGUGAGGAUAUCGAAGACAGACGAAAAGUCUGUCAAACGAGAAGGCACAUGAGGAUCACCCAUGUGGAAA [What have we learned so far? 64% 4]” the same measures were 30.5 nM and 34.6 nM.
